Results from article PMC10683472, “Deep Learning-Driven Library Design for the De Novo Discovery of Bioactive Thiopeptides” (ACS Central Science, 2023).
*1 amine or outer side, *2 acyl side, *3 side chain or, on linkers, in order; H or OH if unused. Where a SMILES comes first, the peptide text is derived from it. Bridges are numbered along the chain shown (N, C = ends). [ ]: non-standard residue; d: D form. X2 = C=C(N[*:2])c1nc(-c2nc(-c3nc(C(=O)OC)cs3)ccc2C(=O)[*:1])cs1; Nle = CCCC[C@H](N)C(=O)O; Dha = C=C(N)C(=O)O

Tests used:
[1] = Serum stability assay; type: in vitro ADME; settings: pH 7.6; human serum, 37 °C, LC/MS; read-out: serum stability τ1/2 (converted)
Experimental: Next, we tested the metabolic stability of the discovered thiopeptides. The compounds were incubated in human serum at 37 °C in the presence of an internal control, and the amounts of the remaining analytes were quantified by LC/MS (Figures S27 and 28). […] At the other extreme, IR11 rapidly degraded in human serum with τ1/2 = 0.5 h. […]
Kinetic parameters and affinities of the […]
2.12. Thiopeptide metabolic stability experiments
The mixtures were stirred
well and transferred to a 37 °C thermostat. […]

[2] = target: T1, TLR10 (Homo sapiens, UniProt Q9BXR5); assay: Single-round mRNA display binding assay (qPCR), TLR10; settings: ratio of cDNA recoveries (qPCR), TLR10 pulldown over beads only, single-round selection
T1 sequence (Q9BXR5 20-576): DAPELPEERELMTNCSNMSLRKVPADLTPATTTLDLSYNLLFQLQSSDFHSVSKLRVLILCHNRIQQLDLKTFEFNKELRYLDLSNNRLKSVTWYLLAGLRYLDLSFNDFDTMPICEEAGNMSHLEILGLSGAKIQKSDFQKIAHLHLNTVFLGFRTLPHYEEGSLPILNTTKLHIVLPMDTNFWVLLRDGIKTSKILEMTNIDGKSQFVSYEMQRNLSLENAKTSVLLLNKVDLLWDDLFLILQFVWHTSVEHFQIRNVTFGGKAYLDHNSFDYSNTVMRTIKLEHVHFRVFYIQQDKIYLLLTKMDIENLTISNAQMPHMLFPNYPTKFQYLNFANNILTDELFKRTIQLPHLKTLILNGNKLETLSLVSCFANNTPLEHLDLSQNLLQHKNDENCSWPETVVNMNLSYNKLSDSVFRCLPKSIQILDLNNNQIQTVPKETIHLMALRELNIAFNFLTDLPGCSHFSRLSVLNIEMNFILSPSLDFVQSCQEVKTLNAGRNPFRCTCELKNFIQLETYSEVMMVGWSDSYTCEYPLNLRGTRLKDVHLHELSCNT

[3] = target: T1, TLR10; assay: mRNA display affinity selection against TLR10, NGS abundance; type: binding; set-up: Chimera protein (extracellular domain, amino acid 20-576;); Fc (chimera); purchased R&D system #6619-TR-050; settings: TLR10 selection, NGS abundance rank; for rank in pulldown(+): –: not found in the final pulldown(+) libraries at the sequenced depth
[4] = target: T2, IRAK4 (Homo sapiens, UniProt Q9NWZ3); assay: mRNA display affinity selection against IRAK4, NGS abundance; type: binding; set-up: acids 1-460; NP_057207.2) was purchased from Carna Biosciences; purchased Carna Biosciences (Kobe, Japan); settings: Top100 selection hits, NGS
T2 sequence (Q9NWZ3 1-460): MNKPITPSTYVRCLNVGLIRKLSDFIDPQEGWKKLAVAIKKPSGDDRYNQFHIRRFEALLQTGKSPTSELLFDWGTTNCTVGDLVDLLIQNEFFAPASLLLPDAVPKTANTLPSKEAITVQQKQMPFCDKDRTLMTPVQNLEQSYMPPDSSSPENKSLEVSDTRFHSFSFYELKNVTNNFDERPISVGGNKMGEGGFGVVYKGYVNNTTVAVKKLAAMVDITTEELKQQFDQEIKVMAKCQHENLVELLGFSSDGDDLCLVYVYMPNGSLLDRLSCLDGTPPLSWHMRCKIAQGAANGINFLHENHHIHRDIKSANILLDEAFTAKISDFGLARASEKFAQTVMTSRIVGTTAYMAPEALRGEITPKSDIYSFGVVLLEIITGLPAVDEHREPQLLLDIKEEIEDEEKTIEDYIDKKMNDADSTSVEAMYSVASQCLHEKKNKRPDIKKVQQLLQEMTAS

Library fraction ([4]; IRAK4 selection pulldown (+))	Raw reads ([4]; IRAK4 selection pulldown (+))	Library fraction ([4]; IRAK4 selection pulldown (-))	Raw reads ([4]; IRAK4 selection pulldown (-))	Compound	half-life at 10 µM [1] [h]	display P/N ratio [2]	rank in pulldown(–) [3]	rank in pulldown(+) [3]
0.013	1364	0.010	1401	SQRWRNRNYR	–	–	–	–
–	–	0.00109	145	SMQRKTIHWKWT	–	–	–	–
0.003	312	0.00109	146	SLLWRKRIYR	–	–	–	–
–	–	0.00011	15	SARWRRRNYS	–	–	–	–
0.013	1424	0.00437	584	TQRVRNRCYK	–	–	–	–
0.0007	76	0.00043	57	TLLWKRRNWA	–	–	–	–
0.0003	37	0.00027	36	SQLYKRRIYQ	–	–	–	–
0.0001	16	7e-5	10	SMLWRRRKYA	–	–	–	–
0.0009	95	0.00032	43	AIRWKNRNYK	–	–	–	–
0.044	4704	0.026	3431	SLLYKRRIYK	–	–	–	–
0.0001	14	–	–	AMRWRNRCYK	–	–	–	–
0.005	525	0.00324	433	SLLWKQRVWK	–	–	–	–
–	–	0.0001	14	CQRIGRRNYS	–	–	–	–
0.0004	44	0.00039	52	RTFWRRRRYH	–	–	–	–
0.0006	68	0.00032	43	TQRWKHRLYK	–	–	–	–
0.180	19248	0.066	8762	SLLWKRRIMK	–	–	–	–
–	–	8e-5	11	RLLWKHRLYA	–	–	–	–
0.0002	19	–	–	AQRWRQKCYK	–	–	–	–
0.0001	9	–	–	TQRYRWRNYK	–	–	–	–
0.0026	283	0.00072	96	SLYWKSRIWR	–	–	–	–
0.0009	95	0.00027	36	SLLWKKRMYK	–	–	–	–
0.0009	95	0.00044	59	RILWRRRRYH	–	–	–	–
–	–	7e-5	10	GMKRQFITWHWT	–	–	–	–
–	–	9e-5	12	SMKRPFITWHWT	–	–	–	–

More lines, now with the values behind:

Compound	Library fraction ([4]; IRAK4 selection pulldown (+))	Raw reads ([4]; IRAK4 selection pulldown (+))	Library fraction ([4]; IRAK4 selection pulldown (-))	Raw reads ([4]; IRAK4 selection pulldown (-))	half-life at 10 µM [1] [h]	display P/N ratio [2]	rank in pulldown(–) [3]	rank in pulldown(+) [3]
C=C1NC(=O)[C@H]([C@@H](C)CC)NC(=O)[C@H](CO)NC(=O)[C@H](CC(=O)O)NC(=O)[C@H](CCCNC(=N)N)NC(=O)[C@H](C)NC(=O)[C@H](CCCC)NC(=O)C(=C)NC(=O)CNC(=O)[C@@H]2CCCN2C(=O)[C@H](Cc2c[nH]c3ccccc23)NC(=O)c2ccc(-c3nc(C(=O)OC)cs3)nc2-c2csc(n2)C(=C)NC1=O [TL18] (WPG[Dha][Nle]ARDSI[Dha]; linker N-C via X2)	–	–	–	–	2.5 ± 0.1	380	10	13
C=C1NC(=O)[C@H](Cc2ccc(O)cc2)NC(=O)[C@H](C)NC(=O)[C@H](C(C)C)NC(=O)[C@H](CCCCN)NC(=O)CNC(=O)[C@H](CC(C)C)NC(=O)[C@H](CCCNC(=N)N)NC(=O)[C@@H]2CCCN2C(=O)[C@H](Cc2ccccc2)NC(=O)[C@H](CCCC)NC(=O)[C@H](CCCC)NC(=O)[C@H]([C@@H](C)O)NC(=O)[C@H](Cc2c[nH]c3ccccc23)NC(=O)c2ccc(-c3nc(C(=O)OC)cs3)nc2-c2csc1n2 [TL9] (HELM PEPTIDE1{W.T.[Nle].[Nle].F.P.R.L.G.K.V.A.Y}|CHEM1{[C=C(N[*:2])c1nc(-c2nc(-c3nc(C(=O)OC)cs3)ccc2C(=O)[*:1])cs1]}$PEPTIDE1,CHEM1,1:R1-1:R1|PEPTIDE1,CHEM1,13:R2-1:R2$$$V2.0)	–	–	–	–	1.7 ± 0.1	235	37	22
C=C1NC(=O)[C@H](Cc2c[nH]c3ccccc23)NC(=O)CNC(=O)[C@H](C(C)C)NC(=O)[C@H](CC(N)=O)NC(=O)CNC(=O)CNC(=O)[C@H](Cc2ccc(O)cc2)NC(=O)[C@@H]2CCCN2C(=O)[C@H](CC(N)=O)NC(=O)[C@H]([C@@H](C)O)NC(=O)[C@H](Cc2c[nH]c3ccccc23)NC(=O)c2ccc(-c3nc(C(=O)OC)cs3)nc2-c2csc1n2 [TL1] (HELM PEPTIDE1{W.T.N.P.Y.G.G.N.V.G.W}|CHEM1{[C=C(N[*:2])c1nc(-c2nc(-c3nc(C(=O)OC)cs3)ccc2C(=O)[*:1])cs1]}$PEPTIDE1,CHEM1,1:R1-1:R1|PEPTIDE1,CHEM1,11:R2-1:R2$$$V2.0; bridges inferred)	–	–	–	–	4.6 ± 0.3	127	1	3
SMLWKRKIWG	0.0047	498	0.00177	237	–	–	–	–
SLRWKRRIWS	–	–	9e-5	12	–	–	–	–
GPVIYNRRIYC	0.0001	11	0.00021	28	–	–	–	–
AMLWKRRLWR	0.0005	57	0.00051	68	–	–	–	–
TQRWKRRNYT	0.0013	136	0.0006	80	–	–	–	–
SIVWKRRIYR	0.005	541	0.00216	289	–	–	–	–
RVLWKKRNYA	0.0004	46	0.00019	26	–	–	–	–
TMRWKRRNWA	–	–	0.00026	35	–	–	–	–
RLCWKRRNWT	0.0004	47	0.00044	59	–	–	–	–
STRWKNRIYR	0.004	433	0.003	390	–	–	–	–
TMLWKRRIYR	0.044	4661	0.029	3881	–	–	–	–
TQRWKCRLYR	0.0001	12	–	–	–	–	–	–
CQRWKRRCYM	0.0007	76	0.00053	71	–	–	–	–
SLLWRRRVYK	0.080	8519	0.046	6174	–	–	–	–
SQRYRNRNYQ	0.0023	242	0.00064	85	–	–	–	–
SIYWKRRRYK	0.0001	11	–	–	–	–	–	–
RTYWKRRCYA	0.0076	814	0.00332	444	–	–	–	–
SVLWKRKIHN	0.0012	125	0.001	137	–	–	–	–
SMQRRVIKWTWA	–	–	0.00016	21	–	–	–	–
SMLWKRRICI	0.0002	17	–	–	–	–	–	–
